The assay has as its target T1, Ig-V domain of human SIRPα V1 (crystallography construct) (human, UniProt P78324-1).
T1 construct: Signal regulatory protein α, human, allele v1, IgV domain as crystallised; also called IgV domain of SIRPα v1
Nature of the assay: crystal structure; Fab-SIRPα V1 complex at 11.3 mg/mL in 10 mM Tris pH 7.4, 50 mM NaCl; sitting drop, 0.1 M sodium acetate pH 4.0, 0.2 M ammonium sulfate, 18% PEG 4000; 2.27 Angstroms. To be noted: both partners purified.

T1 sequence (P78324 33-147): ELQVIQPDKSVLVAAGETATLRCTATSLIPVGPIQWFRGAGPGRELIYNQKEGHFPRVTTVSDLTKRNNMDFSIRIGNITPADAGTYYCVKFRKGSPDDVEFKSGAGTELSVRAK

B1: hAB21 anti-SIRPα Fab (Fab, V domains shown)
VH: DVQLVESGGGVVRPGESLRLSCEASGFTFSSNAMSWVRQAPGKGLEWVAGISSGSDTYYGDSVKGRLTISRDNSKNILYLQMNSLTAEDTAVYYCARETWNHLFDYWGQGTLVTVSS
VL: ELTQPPSVSVSPGQTARITCSGGSYSSYYYAWYQQKPGQAPVTLIYSDDKRPSNIPERFSGSSSGTTVTLTITGVQAEDEADYYCGGYDQSSYTNPFGGGTKLTVL
notes: Fab heavy chain; Fab light chain (humanized lambda); also called hAB21 Fab; Fab version of the antibody
With B1, the binding result is reported as “binds”.
